Patent US20200165335A1 (Seagen, published 2020)

T1: human LIV-1 (human, UniProt Q13433 29-755)
T1 construct: also called hLIV-1; Q13433
T1 sequence: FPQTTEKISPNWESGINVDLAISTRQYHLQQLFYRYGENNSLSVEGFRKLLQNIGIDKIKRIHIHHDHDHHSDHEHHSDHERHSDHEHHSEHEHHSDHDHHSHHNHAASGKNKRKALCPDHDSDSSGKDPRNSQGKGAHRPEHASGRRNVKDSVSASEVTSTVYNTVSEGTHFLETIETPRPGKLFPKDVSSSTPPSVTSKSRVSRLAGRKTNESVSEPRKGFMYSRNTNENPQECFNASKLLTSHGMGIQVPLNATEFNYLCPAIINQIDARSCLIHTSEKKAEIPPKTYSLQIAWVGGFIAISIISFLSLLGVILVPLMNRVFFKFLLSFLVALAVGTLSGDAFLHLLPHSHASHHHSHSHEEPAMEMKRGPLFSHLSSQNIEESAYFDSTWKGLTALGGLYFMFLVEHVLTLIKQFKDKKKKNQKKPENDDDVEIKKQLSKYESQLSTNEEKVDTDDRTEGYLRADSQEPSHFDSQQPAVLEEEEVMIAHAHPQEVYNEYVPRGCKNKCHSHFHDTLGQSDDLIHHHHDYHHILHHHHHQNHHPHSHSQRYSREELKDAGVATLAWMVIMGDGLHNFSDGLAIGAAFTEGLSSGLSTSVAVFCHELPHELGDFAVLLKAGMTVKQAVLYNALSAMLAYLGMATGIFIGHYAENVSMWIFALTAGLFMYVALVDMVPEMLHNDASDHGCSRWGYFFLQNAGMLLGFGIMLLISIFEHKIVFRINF


What follows are binders tested against T1, human LIV-1 (assay: competition flow cytometry, CHO cells expressing human LIV-1, vs 5 nM AF647-labelled BR2-14a).
Experimental: 1×10⁵ CHO cells expressing recombinant human LIV-1 in PBS/BSA were aliquoted into each well of a 96-well v-bottom plates on ice. […] Cells were pelleted and washed 3 times with PBS/BSA. The cells were pelleted and resuspended in 125 μL of PBS/BSA. Fluorescence was analyzed by flow cytometry, using percent of saturated fluorescent signal to determine percent labeled murine LIV-1 mAb bound and to subsequently extrapolate the EC50 by fitting the data to a sigmoidal dose-response curve with variable slope.

Row | Binder | binding result | EC50
1 | humanized BR2-14a antibody HALA (antibody, V domains shown, also called hLIV-1 HA + hLIV-1 LA) VH: QVQLVQSGAEVKKPGASVKVSCKASGYTFTDYYMHWVRQAPGQGLEWMGWIDPENGDTEYAPTFQGRVTMTRDTSISTAYMELSRLRSDDTAVYYCARHDAHYGTWFAYWGQGTLVTVSS VL: DVVMTQSPLSLPVTLGQPASISCRSSQSIIRNDGNTYLEWFQQRPGQSPRRLIYRVSNRFSGVPDRFSGSGSGTDFTLKISRVEAEDVGVYYCFQGSHVPYTFGGGTKVEIKR | no binding (tested: 0.038 nM to 600 nM tested) | –
2 | humanized BR2-14a antibody HALB (antibody, V domains shown, also called hLIV-1 HA + hLIV-1 LB) VH: QVQLVQSGAEVKKPGASVKVSCKASGYTFTDYYMHWVRQAPGQGLEWMGWIDPENGDTEYAPTFQGRVTMTRDTSISTAYMELSRLRSDDTAVYYCARHDAHYGTWFAYWGQGTLVTVSS VL: DVVMTQSPLSLPVTLGQPASISCRSSQSIIRNDGNTYLEWYQQRPGQSPRRLIYRVSNRFSGVPDRFSGSGSGTDFTLKISRVEAEDVGVYYCFQGSHVPYTFGGGTKVEIKR | – | 37.8 µg/mL
3 | humanized BR2-14a antibody HALC (antibody, V domains shown, also called hLIV-1 HA + hLIV-1 LC) VH: QVQLVQSGAEVKKPGASVKVSCKASGYTFTDYYMHWVRQAPGQGLEWMGWIDPENGDTEYAPTFQGRVTMTRDTSISTAYMELSRLRSDDTAVYYCARHDAHYGTWFAYWGQGTLVTVSS VL: DVVMTQSPLSLPVTLGQPASISCRSSQSIIRNDGNTYLEWFLQRPGQSPRRLIYRVSNRFSGVPDRFSGSGSGTDFTLKISRVEAEDVGVYYCFQGSHVPYTFGGGTKVEIKR | – | 25.5 µg/mL
4 | humanized BR2-14a antibody HALD (antibody, V domains shown, also called hLIV-1 HA + hLIV-1 LD) VH: QVQLVQSGAEVKKPGASVKVSCKASGYTFTDYYMHWVRQAPGQGLEWMGWIDPENGDTEYAPTFQGRVTMTRDTSISTAYMELSRLRSDDTAVYYCARHDAHYGTWFAYWGQGTLVTVSS VL: DVVMTQSPLSLPVTLGQPASISCRSSQSIIRNDGNTYLEWFQQRPGQSPKRLIYRVSNRFSGVPDRFSGSGSGTDFTLKISRVEAEDVGVYYCFQGSHVPYTFGGGTKVEIKR | – | 4.9 µg/mL
5 | humanized BR2-14a antibody HALE (antibody, V domains shown, also called hLIV-1 HA + hLIV-1 LE) VH: QVQLVQSGAEVKKPGASVKVSCKASGYTFTDYYMHWVRQAPGQGLEWMGWIDPENGDTEYAPTFQGRVTMTRDTSISTAYMELSRLRSDDTAVYYCARHDAHYGTWFAYWGQGTLVTVSS VL: DVVMTQSPLSLPVTLGQPASISCRSSQSIIRNDGNTYLEWFQQRPGQSPRLLIYRVSNRFSGVPDRFSGSGSGTDFTLKISRVEAEDVGVYYCFQGSHVPYTFGGGTKVEIKR | no binding (tested: 0.038 nM to 600 nM tested) | –
6 | humanized BR2-14a antibody HALF (antibody, V domains shown, also called hLIV-1 HA + hLIV-1 LF) VH: QVQLVQSGAEVKKPGASVKVSCKASGYTFTDYYMHWVRQAPGQGLEWMGWIDPENGDTEYAPTFQGRVTMTRDTSISTAYMELSRLRSDDTAVYYCARHDAHYGTWFAYWGQGTLVTVSS VL: DVVMTQSPLSLPVTLGQPASISCRSSQSIIRNDGNTYLEWYLQKPGQSPKLLIYRVSNRFSGVPDRFSGSGSGTDFTLKISRVEAEDVGVYYCFQGSHVPYTFGGGTKVEIKR | – | 8.8 µg/mL
7 | humanized BR2-14a antibody HBLA (antibody, V domains shown, also called hLIV-1 HB + hLIV-1 LA) VH: QVQLVQSGAEVKKPGASVKVSCKASGYTIEDYYMHWVRQAPGQGLEWMGWIDPENGDTEYAPTFQGRVTMTRDTSINTAYMELSRLRSDDTAVYYCARHDAHYGTWFAYWGQGTLVTVSS VL: DVVMTQSPLSLPVTLGQPASISCRSSQSIIRNDGNTYLEWFQQRPGQSPRRLIYRVSNRFSGVPDRFSGSGSGTDFTLKISRVEAEDVGVYYCFQGSHVPYTFGGGTKVEIKR | – | 19.9 µg/mL
8 | humanized BR2-14a antibody HBLC (antibody, V domains shown, also called hLIV-1 HB + hLIV-1 LC) VH: QVQLVQSGAEVKKPGASVKVSCKASGYTIEDYYMHWVRQAPGQGLEWMGWIDPENGDTEYAPTFQGRVTMTRDTSINTAYMELSRLRSDDTAVYYCARHDAHYGTWFAYWGQGTLVTVSS VL: DVVMTQSPLSLPVTLGQPASISCRSSQSIIRNDGNTYLEWFLQRPGQSPRRLIYRVSNRFSGVPDRFSGSGSGTDFTLKISRVEAEDVGVYYCFQGSHVPYTFGGGTKVEIKR | – | 44 µg/mL
9 | humanized BR2-14a antibody HBLD (antibody, V domains shown, also called hLIV-1 HB + hLIV-1 LD) VH: QVQLVQSGAEVKKPGASVKVSCKASGYTIEDYYMHWVRQAPGQGLEWMGWIDPENGDTEYAPTFQGRVTMTRDTSINTAYMELSRLRSDDTAVYYCARHDAHYGTWFAYWGQGTLVTVSS VL: DVVMTQSPLSLPVTLGQPASISCRSSQSIIRNDGNTYLEWFQQRPGQSPKRLIYRVSNRFSGVPDRFSGSGSGTDFTLKISRVEAEDVGVYYCFQGSHVPYTFGGGTKVEIKR | – | 17.4 µg/mL
10 | humanized BR2-14a antibody HBLF (antibody, V domains shown, also called hLIV-1 HB + hLIV-1 LF) VH: QVQLVQSGAEVKKPGASVKVSCKASGYTIEDYYMHWVRQAPGQGLEWMGWIDPENGDTEYAPTFQGRVTMTRDTSINTAYMELSRLRSDDTAVYYCARHDAHYGTWFAYWGQGTLVTVSS VL: DVVMTQSPLSLPVTLGQPASISCRSSQSIIRNDGNTYLEWYLQKPGQSPKLLIYRVSNRFSGVPDRFSGSGSGTDFTLKISRVEAEDVGVYYCFQGSHVPYTFGGGTKVEIKR | – | 0.7 µg/mL
11 | humanized BR2-14a antibody HCLB (antibody, V domains shown, also called hLIV-1 HC + hLIV-1 LB) VH: QVQLVQSGAEVKKPGASVKVSCKASGYTFTDYYMHWVRQAPGQGLEWMGWIDPENGDTEYAPTFQGKATMTADTSISTAYMELSRLRSDDTAVYYCARHDAHYGTWFAYWGQGTLVTVSS VL: DVVMTQSPLSLPVTLGQPASISCRSSQSIIRNDGNTYLEWYQQRPGQSPRRLIYRVSNRFSGVPDRFSGSGSGTDFTLKISRVEAEDVGVYYCFQGSHVPYTFGGGTKVEIKR | – | 1.8 µg/mL
12 | humanized BR2-14a antibody HCLD (antibody, V domains shown, also called hLIV-1 HC + hLIV-1 LD) VH: QVQLVQSGAEVKKPGASVKVSCKASGYTFTDYYMHWVRQAPGQGLEWMGWIDPENGDTEYAPTFQGKATMTADTSISTAYMELSRLRSDDTAVYYCARHDAHYGTWFAYWGQGTLVTVSS VL: DVVMTQSPLSLPVTLGQPASISCRSSQSIIRNDGNTYLEWFQQRPGQSPKRLIYRVSNRFSGVPDRFSGSGSGTDFTLKISRVEAEDVGVYYCFQGSHVPYTFGGGTKVEIKR | – | 66.6 µg/mL
13 | humanized BR2-14a antibody HCLF (antibody, V domains shown, also called hLIV-1 HC + hLIV-1 LF) VH: QVQLVQSGAEVKKPGASVKVSCKASGYTFTDYYMHWVRQAPGQGLEWMGWIDPENGDTEYAPTFQGKATMTADTSISTAYMELSRLRSDDTAVYYCARHDAHYGTWFAYWGQGTLVTVSS VL: DVVMTQSPLSLPVTLGQPASISCRSSQSIIRNDGNTYLEWYLQKPGQSPKLLIYRVSNRFSGVPDRFSGSGSGTDFTLKISRVEAEDVGVYYCFQGSHVPYTFGGGTKVEIKR | – | 1.3 µg/mL
14 | humanized BR2-14a antibody HDLB (antibody, V domains shown, also called hLIV-1 HD + hLIV-1 LB) VH: QVQLVQSGAEVKKPGASVKVSCKASGFTFTDYYMHWVRQAPGQGLEWMGWIDPENGDTEYAPTFQGRVTMTRDTSISTAYMELSRLRSDDTAVYYCNVHDAHYGTWFAYWGQGTLVTVSS VL: DVVMTQSPLSLPVTLGQPASISCRSSQSIIRNDGNTYLEWYQQRPGQSPRRLIYRVSNRFSGVPDRFSGSGSGTDFTLKISRVEAEDVGVYYCFQGSHVPYTFGGGTKVEIKR | – | 2.3 µg/mL
15 | humanized BR2-14a antibody HDLD (antibody, V domains shown, also called hLIV-1 HD + hLIV-1 LD) VH: QVQLVQSGAEVKKPGASVKVSCKASGFTFTDYYMHWVRQAPGQGLEWMGWIDPENGDTEYAPTFQGRVTMTRDTSISTAYMELSRLRSDDTAVYYCNVHDAHYGTWFAYWGQGTLVTVSS VL: DVVMTQSPLSLPVTLGQPASISCRSSQSIIRNDGNTYLEWFQQRPGQSPKRLIYRVSNRFSGVPDRFSGSGSGTDFTLKISRVEAEDVGVYYCFQGSHVPYTFGGGTKVEIKR | – | 67.9 µg/mL
